Assay results reported in US20040265932A1 (AbbVie / Abbott, published 2004).

Biological target: T1, Mammaglobin polypeptide from breast cancer tissue extract (human, UniProt Q13296 19-93, glycoprotein (Asn 53 and/or Asn 68 may carry sugars))
T1 construct: native protein in tissue extract, 17-23 kD reduced
Test: legend of FIG. 20A-D; MonoQ fractions, dot blots and Western blots
Procedure: C. Ion Exchange Chromatography The breast cancer tissue extract derived from the patient with invasive, poorly differentiated adenocarcinoma (breast) (FIG. 11, lanes. 4 and 10) was purified using anion exchange chromatography. Specifically, the 800 uL extract was applied to a Mono Q 5/5 column (Pharmacia) equilibrated with 20 mM piperazine, pH 6.0. The proteins were eluted using a linear gradient of sodium chloride. The flow rate was 1 mL/min; the gradient was 20 mM sodium chloride per milliliter of buffer; and the elution time was 50 minutes; creating an elution profile that went from 0 to 1000 mM sodium chloride. The sample loading time was 30 minutes prior to application of the elution gradient. Each 1 mL fraction was sampled. One hundred microliters of each fraction was boiled in the presence of 0.1% beta-mercaptoethanol and was then applied to a well of a dot blot apparatus and the volume was suctioned through a piece of nitrocellulose. The nitrocellulose filter was then developed with the same procedure to develop Western blots, as described hereinabove in Example 7B, using polyclonal antisera recognizing either BU101 or Mam. […]
Protein extracted from breast tissue was fractionated using a MonoQ column at pH6 and eluted using increasing salt gradient. […] The MamBu complex is detected using both antibodies under non-reducing conditions (FIGS. 20C & D). […]

T1 sequence (Q13296 19-93 limits assumed): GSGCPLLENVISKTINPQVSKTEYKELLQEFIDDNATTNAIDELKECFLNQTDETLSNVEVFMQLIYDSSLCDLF

B1: BU101 polypeptide from breast cancer tissue extract (other)
chain: EFCPALVSELLDFFFISEPLFKLSLAKFDAPPEAVAAKLGVKRCTDQMSLQKRSLIAEVLVKILKKCSV
notes: native protein in tissue extract, about 7 kD reduced
- binding result: binds
